Laboratory results published in patent US20090149381.

Each substance was assayed against human recombinant PEDF (pigment epithelium-derived factor) (UniProt P36955).
Sequence of human recombinant PEDF (pigment epithelium-derived factor) (P36955 20-418): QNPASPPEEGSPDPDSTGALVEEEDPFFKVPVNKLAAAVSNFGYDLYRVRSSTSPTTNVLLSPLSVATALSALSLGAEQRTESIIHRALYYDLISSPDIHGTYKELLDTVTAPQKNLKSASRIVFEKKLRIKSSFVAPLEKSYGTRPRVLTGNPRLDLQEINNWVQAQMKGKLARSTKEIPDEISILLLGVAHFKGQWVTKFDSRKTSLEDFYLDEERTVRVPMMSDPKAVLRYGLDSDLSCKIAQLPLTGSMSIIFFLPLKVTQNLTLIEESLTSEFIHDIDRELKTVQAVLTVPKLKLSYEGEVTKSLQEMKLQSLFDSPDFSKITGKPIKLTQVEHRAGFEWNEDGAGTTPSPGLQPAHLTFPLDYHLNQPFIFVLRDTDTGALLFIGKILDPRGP

Sequence of human recombinant MMP-9 (chain, as listed by the source): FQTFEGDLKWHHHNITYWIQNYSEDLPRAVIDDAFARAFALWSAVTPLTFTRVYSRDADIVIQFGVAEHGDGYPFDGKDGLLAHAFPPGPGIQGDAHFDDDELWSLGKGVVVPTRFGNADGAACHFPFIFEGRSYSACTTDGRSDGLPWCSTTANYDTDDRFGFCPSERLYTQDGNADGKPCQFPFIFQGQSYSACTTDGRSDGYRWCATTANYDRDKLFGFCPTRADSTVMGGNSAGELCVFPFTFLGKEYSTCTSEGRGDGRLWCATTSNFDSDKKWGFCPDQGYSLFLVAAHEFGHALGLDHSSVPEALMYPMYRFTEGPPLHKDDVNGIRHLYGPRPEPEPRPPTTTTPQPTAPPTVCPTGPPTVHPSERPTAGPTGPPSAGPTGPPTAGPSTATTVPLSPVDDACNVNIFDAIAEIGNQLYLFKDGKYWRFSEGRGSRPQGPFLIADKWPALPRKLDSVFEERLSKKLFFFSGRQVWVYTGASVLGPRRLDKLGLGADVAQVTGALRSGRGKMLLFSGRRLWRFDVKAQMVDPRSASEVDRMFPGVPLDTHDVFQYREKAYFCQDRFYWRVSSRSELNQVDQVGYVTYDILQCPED

With MMP-7 as the substance, how does the “PEDF fragments observed by SDS-PAGE after protease treatment” value (“PEDF fragments observed by SDS-PAGE” for short) read?
The value was “resulted in the generation of multiple PEDF fragments that were observed by SDS-PAGE. These fragments had estimated relative molecular weights of 44 and 42 KDa”.

For activated MMP-2, which “PEDF fragments observed by SDS-PAGE” value is on record?
The value was “resulted in the generation of multiple PEDF fragments that were observed by SDS-PAGE. These fragments had estimated relative molecular weights of 44 and 42 KDa”.

How did the “PEDF fragments observed by SDS-PAGE” value turn out when human recombinant MMP-9 was run?
The value was “resulted in the generation of multiple PEDF fragments that were observed by SDS-PAGE. These fragments had estimated relative molecular weights of 44 and 42 KDa”.
